Experimental data taken from article PMC5425128, “Functional human GRIN2B promoter polymorphism and variation of mental processing speed in older adults”.

Molecular target: T1, Elk-1 (human, UniProt P19419 1-428)
T1 sequence: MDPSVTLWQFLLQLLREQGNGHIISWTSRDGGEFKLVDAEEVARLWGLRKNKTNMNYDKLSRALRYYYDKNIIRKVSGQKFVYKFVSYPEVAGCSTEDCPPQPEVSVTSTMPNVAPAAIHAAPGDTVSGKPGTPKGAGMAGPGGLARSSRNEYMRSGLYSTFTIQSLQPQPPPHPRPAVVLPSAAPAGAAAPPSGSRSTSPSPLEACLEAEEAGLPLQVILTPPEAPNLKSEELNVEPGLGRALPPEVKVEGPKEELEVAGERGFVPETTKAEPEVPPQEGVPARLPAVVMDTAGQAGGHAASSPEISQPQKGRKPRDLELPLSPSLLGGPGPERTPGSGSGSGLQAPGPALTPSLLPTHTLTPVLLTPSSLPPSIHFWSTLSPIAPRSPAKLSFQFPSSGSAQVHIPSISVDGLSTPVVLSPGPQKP
Assay: EMSA; 1 ug Elk-1, 10 mM MgCl2, no poly(dI-dC); 50 mM HEPES pH 7.5, 10 mM MgCl2, 5% glycerol, 1 mM DTT, 0.3% BSA, 1 mM EDTA; 1 h on ice; 6% gel (HEPES buffer pH 6.3), no poly(dI-dC)
Conditions: protein: commercial; blunt

B1: GRIN2B A allele (rs3764030 A) (dsDNA)
DNA 1: CATCTCCGGGGAACACGCGAA
DNA 2: TTCGCGTGTTCCCCGGAGATG
  binding result: binds
